Key:
[1] = target: T1, Human ANGPTL3(17-460)-FLAG-His-Avi (human, UniProt Q9Y5C1 17-460, biotin on the C-terminal Avi tag (BirA)); assay: Octet (ForteBio) kinetics, biotinylated antigen on streptavidin sensor, IgG in solution; no binding at 25 nM
T1 construct: also called full length human ANGPTL3; hANGPTL3
T1 sequence: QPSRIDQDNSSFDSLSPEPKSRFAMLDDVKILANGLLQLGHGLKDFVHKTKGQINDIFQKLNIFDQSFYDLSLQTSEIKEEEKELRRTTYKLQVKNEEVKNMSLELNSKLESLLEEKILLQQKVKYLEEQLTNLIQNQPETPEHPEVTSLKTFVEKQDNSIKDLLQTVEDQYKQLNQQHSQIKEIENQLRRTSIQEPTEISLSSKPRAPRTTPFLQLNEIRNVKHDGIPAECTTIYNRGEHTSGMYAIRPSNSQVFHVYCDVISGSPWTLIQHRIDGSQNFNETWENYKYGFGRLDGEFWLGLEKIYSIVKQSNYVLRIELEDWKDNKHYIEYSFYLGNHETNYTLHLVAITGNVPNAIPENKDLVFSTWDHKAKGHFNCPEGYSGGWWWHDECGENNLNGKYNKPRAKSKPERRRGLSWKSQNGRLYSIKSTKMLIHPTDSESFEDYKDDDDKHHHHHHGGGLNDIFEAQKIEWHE

[2] = target: T2, Human ANGPTL4(26-406)-FLAG-His6-Avi (human, UniProt Q9BY76 24-406, biotin on the C-terminal Avi tag (BirA) where the protein is immobilised); assay: Octet (ForteBio) kinetics; average KD of the runs
T2 construct: the text calls it 20 amino acids), then QP, ANGPTL4 26-406 and FLAG-His6-Avi; the signal peptide is left out here; also called full length human ANGPTL4; hANGPTL4
T2 sequence: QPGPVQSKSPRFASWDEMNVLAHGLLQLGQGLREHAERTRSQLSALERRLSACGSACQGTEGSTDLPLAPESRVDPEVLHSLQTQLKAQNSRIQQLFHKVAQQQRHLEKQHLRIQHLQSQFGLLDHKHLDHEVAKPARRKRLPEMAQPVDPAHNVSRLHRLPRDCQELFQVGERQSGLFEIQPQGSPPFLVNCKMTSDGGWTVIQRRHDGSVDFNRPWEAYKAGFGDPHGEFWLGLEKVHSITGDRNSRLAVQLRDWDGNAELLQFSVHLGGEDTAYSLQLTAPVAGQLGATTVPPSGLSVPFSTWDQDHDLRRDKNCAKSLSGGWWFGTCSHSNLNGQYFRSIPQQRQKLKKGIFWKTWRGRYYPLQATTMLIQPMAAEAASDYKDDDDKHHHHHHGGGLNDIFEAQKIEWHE

[3] = target: T3, Cynomolgus monkey ANGPTL4(26-161)-FLAG-His6-Avi (cynomolgus monkey, biotin on the C-terminal Avi tag (BirA) where the protein is immobilised); assay: Octet (ForteBio) kinetics; average KD of the runs
T3 construct: also called Cyno ANGPTL4 (26-161)
T3 chain: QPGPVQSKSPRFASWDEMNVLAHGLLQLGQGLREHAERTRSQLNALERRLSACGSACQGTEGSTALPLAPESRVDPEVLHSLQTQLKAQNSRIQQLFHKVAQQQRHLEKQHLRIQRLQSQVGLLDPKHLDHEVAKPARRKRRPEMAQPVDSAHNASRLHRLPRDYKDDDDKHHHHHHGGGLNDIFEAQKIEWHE

[4] = target: T4, Human ANGPTL4(26-161)-FLAG-His6-Avi (human, biotin on the C-terminal Avi tag (BirA) where the protein is immobilised); assay: Octet (ForteBio) kinetics; average KD of the runs
T4 construct: also called human ANGPTL4 N-terminal coiled coil domain; hANGPTL4-CCD
T4 chain: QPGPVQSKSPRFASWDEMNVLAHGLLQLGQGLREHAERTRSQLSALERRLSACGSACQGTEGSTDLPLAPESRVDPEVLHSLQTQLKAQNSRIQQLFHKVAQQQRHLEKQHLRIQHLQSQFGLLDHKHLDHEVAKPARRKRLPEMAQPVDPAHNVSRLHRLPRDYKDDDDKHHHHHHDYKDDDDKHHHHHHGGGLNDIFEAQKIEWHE

[5] = target: T5, Cynomolgus monkey ANGPTL4(26-406)-FLAG-His6-Avi (cynomolgus monkey, biotin on the C-terminal Avi tag (BirA) where the protein is immobilised); assay: Octet (ForteBio) kinetics; average KD of the runs
T5 construct: also called Cyno ANGPTL4 (26-406)
T5 chain: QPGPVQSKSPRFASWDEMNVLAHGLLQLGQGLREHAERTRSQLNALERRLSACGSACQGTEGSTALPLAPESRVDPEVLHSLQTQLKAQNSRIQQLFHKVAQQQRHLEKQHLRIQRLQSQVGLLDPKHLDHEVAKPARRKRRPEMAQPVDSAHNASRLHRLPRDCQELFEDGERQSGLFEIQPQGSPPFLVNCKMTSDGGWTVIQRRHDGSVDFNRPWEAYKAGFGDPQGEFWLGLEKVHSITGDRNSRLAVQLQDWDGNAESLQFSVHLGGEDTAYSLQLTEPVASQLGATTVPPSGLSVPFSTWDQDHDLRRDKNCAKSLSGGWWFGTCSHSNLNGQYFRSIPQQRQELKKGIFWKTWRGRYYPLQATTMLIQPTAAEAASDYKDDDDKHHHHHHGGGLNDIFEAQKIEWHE

[6] = target: T6, Rat ANGPTL4(24-405)-FLAG-His6-Avi (rat, UniProt Q6TMA8 24-405, biotin on the C-terminal Avi tag (BirA) where the protein is immobilised); assay: Octet (ForteBio) kinetics, biotinylated antigen on streptavidin sensor, IgG in solution; Octet kinetics; run 3 on rat ANGPTL4
T6 sequence: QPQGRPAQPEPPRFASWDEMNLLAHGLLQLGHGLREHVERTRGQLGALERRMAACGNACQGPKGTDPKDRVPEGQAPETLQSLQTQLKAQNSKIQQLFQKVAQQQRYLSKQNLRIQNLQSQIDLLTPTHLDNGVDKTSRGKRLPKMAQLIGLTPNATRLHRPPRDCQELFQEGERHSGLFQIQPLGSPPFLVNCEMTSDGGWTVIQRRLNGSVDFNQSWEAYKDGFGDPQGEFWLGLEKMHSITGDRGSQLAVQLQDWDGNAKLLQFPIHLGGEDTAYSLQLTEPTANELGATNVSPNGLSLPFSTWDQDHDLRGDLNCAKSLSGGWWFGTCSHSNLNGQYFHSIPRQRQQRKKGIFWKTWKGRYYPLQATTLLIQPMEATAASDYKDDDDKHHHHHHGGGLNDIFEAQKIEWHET

B1: NEG276-LALA (antibody, human IgG1, kappa, L234A L235A)
heavy: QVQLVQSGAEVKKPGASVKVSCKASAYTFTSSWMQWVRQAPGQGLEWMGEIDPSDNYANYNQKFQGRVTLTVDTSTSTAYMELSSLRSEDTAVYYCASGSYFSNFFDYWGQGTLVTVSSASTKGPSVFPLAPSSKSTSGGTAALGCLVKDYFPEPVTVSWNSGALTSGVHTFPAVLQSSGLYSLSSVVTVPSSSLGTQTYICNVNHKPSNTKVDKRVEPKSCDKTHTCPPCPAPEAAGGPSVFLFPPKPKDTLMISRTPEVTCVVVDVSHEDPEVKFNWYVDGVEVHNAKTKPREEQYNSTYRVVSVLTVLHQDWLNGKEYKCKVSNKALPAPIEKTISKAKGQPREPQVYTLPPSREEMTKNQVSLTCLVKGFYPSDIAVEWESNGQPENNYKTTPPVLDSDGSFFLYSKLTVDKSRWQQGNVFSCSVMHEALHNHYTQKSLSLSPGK
light: EIVMTQSPATLSVSPGERATLSCKASQDIGSNLNWLQQKPGQAPRRLIYAVSNRGPGIPARFSGSRSGSEYTLTISSLQSEDFAVYYCLQYASSPWTFGQGTKVEIKRTVAAPSVFIFPPSDEQLKSGTASVVCLLNNFYPREAKVQWKVDNALQSGNSQESVTEQDSKDSTYSLSSTLTLSKADYEKHKVYACEVTHQGLSSPVTKSFNRGEC
B1 gave a Kd [1] of over 6 nM, a Kd [2] of 0.013 nM and a Kd [3] of 0.056 nM. The Kd [4] was 0.038 nM, the Kd [5] was 0.015 nM and the Kd [6] was 5.53 nM. It also gave a koff [6] of 0.00028 s⁻¹ and a kon [6] of 52000 M⁻¹ s⁻¹.

Reference: patent US20220213181A1 (Novartis, published 2022)
